Source: patent US20080280831A1 (BOARD OF REGENTS OF THE UNIVERSITY OF OKLAHOMA, published 2008)

T1: Factor VIIa (purified human, Enzyme Research Laboratories) (human, UniProt P08709 61-466)
T1 sequence (looked up): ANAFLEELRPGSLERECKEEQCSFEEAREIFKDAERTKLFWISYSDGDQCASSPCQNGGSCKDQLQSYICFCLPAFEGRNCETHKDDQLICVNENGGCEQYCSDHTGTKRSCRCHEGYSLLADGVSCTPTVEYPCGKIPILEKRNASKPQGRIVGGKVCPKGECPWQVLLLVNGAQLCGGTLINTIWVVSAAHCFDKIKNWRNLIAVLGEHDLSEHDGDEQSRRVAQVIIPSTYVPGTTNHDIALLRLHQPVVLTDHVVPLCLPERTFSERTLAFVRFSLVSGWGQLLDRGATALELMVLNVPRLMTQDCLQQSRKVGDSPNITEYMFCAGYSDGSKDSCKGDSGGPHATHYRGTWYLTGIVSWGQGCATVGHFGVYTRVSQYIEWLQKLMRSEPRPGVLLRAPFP


Biological target: T1, Factor VIIa (purified human, Enzyme …)
Assay: Titration of cofactor against 5 nM Factor VIIa; increase in amidolytic activity (Chromozym t-PA); no phospholipid vesicles
Description: After 10 min at room temperature, Chromozym t-PA was added (1 mM final) and the initial rate of substrate hydrolysis was measured at 405 nm using a microplate reader (Molecular Devices, Menlo Park, Calif.). […] Kinetic parameters were calculated using Prism 4 (GraphPad Software, San Diego, Calif.).

| Kd [nM] | Binder |
| --- | --- |
| 7.05 | sTF-annexin V chimeric protein (other, Expressed in the E. coli periplasm from pET-22b(+), whose signal peptide is removed; also called sTF-annV; sTF-AnnV) GTTNTVAAYNLTWKSTNFKTILEWEPKPVNQVYTVQISTKSGDWKSKCFYTTDTECDLTDEIVKDVKQTYLARVFSYPAGNVESTGSAGEPLYENSPEFTPYLETNLGQPTIQSFEQVGTKVNVTVEDERTLVRRNNTFLSLRDVFGKDLIYTLYYWKSSSSGKKTAKTNTNEFLIDVDKGENYCFSVQAVIPSRTVNRKSTDSPVECMGQEKGEFREGGGGSGGGGSGGGGSAQVLRGTVTDFPGFDERADAETLRKAMKGLGTDEESILTLLTSRSNAQRQEISAAFKTLFGRDLLDDLKSELTGKFEKLIVALMKPSRLYDAYELKHALKGAGTNEKVLTEIIASRTPEELRAIKQVYEEEYGSSLEDDVVGDTSGYYQRMLVVLLQANRDPDAGIDEAQVEQDAQALFQAGELKWGTDEEKFITIFGTRSVSHLRKVFDKYMTISGFQIEETIDRETSGNLEQLLLAVVKSIRSIPAYLAETLYYAMKGAGTDDHTLIRVMVSRSEIDLFNIRKEFRKNFATSLYSMIKGDTSGDYKKALLLLCGEDDPLEHHHHHH |
| 8.17 | recombinant sTF (TF2-219) (receptor, also called soluble TF; soluble Tissue Factor) GTTNTVAAYNLTWKSTNFKTILEWEPKPVNQVYTVQISTKSGDWKSKCFYTTDTECDLTDEIVKDVKQTYLARVFSYPAGNVESTGSAGEPLYENSPEFTPYLETNLGQPTIQSFEQVGTKVNVTVEDERTLVRRNNTFLSLRDVFGKDLIYTLYYWKSSSSGKKTAKTNTNEFLIDVDKGENYCFSVQAVIPSRTVNRKSTDSPVECMGQEKGEFRE |
